Values of other authors, collected in US20120064039A1, “Use of Guanylyl Cyclase C Agonists to Suppress Appetite” (priority 2009, published 2012).

Target: ST receptors (guanylate cyclase) (Homo sapiens, UniProt P25092)
Conditions: relative to native ST; about

Chain of ST receptors (guanylate cyclase) (P25092 24-1073): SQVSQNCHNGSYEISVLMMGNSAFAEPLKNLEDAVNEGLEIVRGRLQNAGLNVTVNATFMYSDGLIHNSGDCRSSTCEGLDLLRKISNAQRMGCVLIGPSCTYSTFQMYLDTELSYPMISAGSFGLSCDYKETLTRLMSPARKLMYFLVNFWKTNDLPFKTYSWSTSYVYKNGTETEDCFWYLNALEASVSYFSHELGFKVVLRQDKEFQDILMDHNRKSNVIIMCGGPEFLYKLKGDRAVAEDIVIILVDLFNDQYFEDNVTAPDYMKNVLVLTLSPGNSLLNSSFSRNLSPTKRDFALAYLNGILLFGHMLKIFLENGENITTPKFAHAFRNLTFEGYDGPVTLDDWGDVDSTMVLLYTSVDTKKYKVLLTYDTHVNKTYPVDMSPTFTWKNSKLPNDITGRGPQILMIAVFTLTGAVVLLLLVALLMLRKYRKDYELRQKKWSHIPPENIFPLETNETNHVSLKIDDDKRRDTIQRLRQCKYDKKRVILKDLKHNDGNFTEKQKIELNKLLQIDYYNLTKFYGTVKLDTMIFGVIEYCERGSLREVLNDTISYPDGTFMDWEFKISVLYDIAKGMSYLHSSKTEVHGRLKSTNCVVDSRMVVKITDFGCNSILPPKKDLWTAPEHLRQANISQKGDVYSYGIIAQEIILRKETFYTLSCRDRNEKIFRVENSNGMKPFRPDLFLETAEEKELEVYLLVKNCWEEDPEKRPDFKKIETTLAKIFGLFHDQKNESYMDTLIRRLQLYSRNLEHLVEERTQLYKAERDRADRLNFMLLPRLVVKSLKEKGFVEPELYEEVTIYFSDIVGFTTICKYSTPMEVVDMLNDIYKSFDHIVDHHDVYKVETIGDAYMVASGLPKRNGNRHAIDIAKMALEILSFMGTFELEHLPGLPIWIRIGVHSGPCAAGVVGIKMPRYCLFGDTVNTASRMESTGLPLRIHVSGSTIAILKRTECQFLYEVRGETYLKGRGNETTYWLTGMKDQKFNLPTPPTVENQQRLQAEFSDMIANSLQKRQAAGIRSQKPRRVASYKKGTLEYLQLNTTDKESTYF

In the case of “guanylin (PNTCEICAYAACTGC; listed as Rattus norvegicus) [native GCC ligand]”, the “activates guanylate cyclase at a level less than native ST” value is given as 10- to 100 fold.
